Test: soluble on expression in E. coli; label from the status in PepcDB or PDB records

Row | Sequence | soluble on expression in E. coli
1 | MGLFASAPVDDGSMEIVRDFIQNMENDAQSSNKSAFADCFMDTFNFNVRGRIFTKALFVESYLTKPNPEPLILKSSIFTQGKNEIKFNVSHVVGPRTNIADFYLLREGEEGKWRLKSGIVIN | not soluble
2 | MSIRSLGYLRIEATDMAAWREYGLKVLGMVEGKGAPEGALYLRMDDFPARLVVVPGEHDRLLEAGWECANAEGLQEIRNRLDLEGTPYKEATAAELADRRVDEMIRFADPSGNCLEVFHGTALEHRRVVSPYGHRFVTGEQGMGHVVLSTRDDAEALHFYRDVLGFRLRDSMRLPPQMVGRPADGPPAWLRFFGCNPRHHSLAFLPMPTSSGIVHLMVEVEQADDVGLCLDRALRRKVPMSATLGRHVNDLMLSFYMKTPGGFDIEFGCEGRQVDDRDWIARESTAVSLWGHDFTVGARG | soluble
3 | MSLRISILQNNNKEVEAVKSEYESKLSKIQNDLDQQTIYANTAQNNYEQELQKHADVSKTISELREQLHTYKGQVKTLNLSRDQLENALKENEKSWSSQKESLLEQLDLSNSRIEDLSSQNKLLYDQIQIYTAADKEVNNSTNGPGLNNILITLRRERDILDTKVTVAERDAKMLRQKISLMDVELQDARTKLDNSRVEKENHSSIIQQHDDIMEKLNQLNLLRESNITLRNELENNNNKKKELQSELDKLKQNVAPIESELTALKYSMQEKEQELKLAKEEVHRWKKRSQDILEKHEQLSSSDYEKLESEIENLKEELENKERQGAEAEEKFNRLRRQAQERLKTSKLSQDSLTEQVNSLRDAKNVLENSLSEANARIEELQNAKVAQGNNQLEAIRKLQEDAEKASRELQAKLEESTTSYESTINGLNEEITTLKEEIEKQRQIQQQLQATSANEQNDLSNIVESMKKSFEEDKIKFIKEKTQEVNEKILEAQERLNQPSNINMEEIKKKWESEHEQEVSQKIREAEEALKKRIRLPTEEKINKIIERKKEELEKEFEEKVEERIKSMEQSGEIDVVLRKQLEAKVQEKQKELENEYNKKLQEELKDVPHSSHISDDERDKLRAEIESRLREEFNNELQAIKKKSFDEGKQQAMMKTTLLERKLAKMESQLSETKQSAESPPKSVNNVQNPLLGLPRKIEENSNSPFNPLLSGEKLLKLNSKSSSGGFNPFTSPSPNKHLQNDNDKRESLANKTDPPTHLEPSFNIPASRGLISSSSTLSTDTNDEELTSNNPAQKDSSNRNVQSEEDTEKKKEGEPVKRGEAIEEQTKSNKRPIDEVGELKNDEDDTTENINESKKIKTEDEEEKETDKVNDENSIEGHHHHHH | soluble
4 | MSNLYTELKNEWSKHAPNLTHCSRLLDGFKLELVRSNFGTIQTASSSKQKDQLIKSREMLEIAVEHSITIKDYAAFERYMAQLNTYYYDYDKYLESSKHMYKFMGLNLLYMLATNRLADFHIELERLPTALLLHDSFIQPVLALENYYMEGRYNKILQAKKSMPSEIYSNFMDILVNTAREEIASCMEKSYLKMAPKLAAQRLGLRPGSKELFELATKRQWCLDEEGNYDYAGLHTRPMEKVPAKDIATHNLTYAQELEKIVLEHHHHHH | not soluble
5 | MATYLIGDVHGCYDELIALLHKVEFTPGKDTLWLTGDLVARGPGSLDVLRYVKSLGDSVRLVLGNHDLHLLAVFAGISRNKPKDRLTPLLEAPDADELLNWLRRQPLLQIDEEKKLVMAHAGITPQWDLQTAKECARDVEAVLSSDSYPFFLDAMYGDMPNNWSPELRGLGRLRFITNAFTRMRFCFPNGQLDMYSKESPEEAPAPLKPWFAIPGPVAEEYSIAFGHWASLEGKGTPEGIYALDTGCCWGGSLTCLRWEDKQYFVQPSNRHKDLGEGEAVAS | soluble
6 | MMIKVGAAINGTDSPKAMKREHDNDDGDRTGRHKRPKTDGFTEAIQQGKFEVRLLVSSKSAGAIIGKGGENIKRLRAEFNAHVQVPDSNTPERVCTVTADEKTVLNILKDVLPRLEDNFSERDPCEVRMLVHQSHAGALIGRNGSKIKELREKCSARLKIFTGCAPGSTDRVLITSGEQKNVLGIIEEVMKELKEIPIKGSATPYLPAFNYDPSNISDYGGFPGNMPAGGPPNNRGPAPQRGGQGPPGGPRSYGGAITQGGGQRSFEAGDFQQFRGGPGPVPGYAMSAPGYPPQQGQFGAPNNAGYGYGPGGGGPVTTAQVTIPSDLGGTIIGRGGERIARIRQESGAQITLEQSNGQPERIITIKGTEQQIHSAQYLLQQCVRNSTQGRERFGGSV | not soluble
7 | SLPSINALLQAEVLSRQITSPVSGINGDIRAKKIASIADVCESMKEQLLVLVEWAKYIPAFCELPLDDQVALLRAHAGEHLLLGATKRSMVFKDVLLLGNDYIVPRHCPELAEMSRVSIRILDELVLPFQELQIDDNEYAYLKAIIFFDPDAKGLSDPGKIKRLRSQVQVSLEDYINDRQYDSRGRFGELLLLLPTLQSITWQMIEQIQFIKLFGMAKIDNLLQEMLLGG | soluble
8 | MADKDTYTGFCIIKEGTKISKSGWEVLSFTTQEASGEGAGNGLAKCLIDGDTETFWHAKWQGGSDPLPYDIVIDMKQNIQIAQVELLPRGRGSNNPIKVVEFAASEDNVNWTPIGRFGFTNQDAALEYYVKSIKARYIRLTIPDDGGNSTVAAIRELDVKGTIINLEHHHHHH | soluble
9 | PGVGDYKGLLKWTSHNQYEKEVKKADEQYGKLYAKFADMPIEKVAKDPQAKQIAQNLFNTYCIQCHGSDAKGSKGFPNLTDSDWLWGGDPDKIHETIEKGRVATMPAWGPALGEEGVKDVAHYVMSLSKPEGQYDEERAARGQALFSGPPANCFTCHGDKGQGIQGLGPNLTDDVWLWGGTQKSIIETITNGRSSQMPAWGHFLDKDKLHIMTAYVWGLSDKDGKAPVKKAEPAPTPAPAAEPAASAPAEAAQAVSEAKPAAAEPKAEEKAAPAAKADGK | not soluble
10 | MGSDKIHHHHHHAQQSSGDYYEGLSRKIGFSQMIPPHGLEITYDKTVHIIFPSPVRYVDLGSPNLIAGKADGAENVIRVKATRKHFRSETNMSVITEDGNFYTFNVKYADEPLLLNVEMCDFIHDGESVNHPNNAMEIYLQELAGESPRLVRLIMKSVYMQDKRKVKHVGSKRFGVQYLLKGLYAHGELLYFHTEVKNATHVPFDVDFVTFKIVDKKIVKRTAMQEQVIYPLRAFNYVTRVDGKKNERTVFALPKFTIPDGKKLVVEMYEKQGGRHQSFEVENEDLVRAGTVNELKVR | not soluble
11 | MAGRLREMRCELSFLKNADGSACFSQGATCIWASCSGPGDVHASKASDEAMTLDISYRANCGDNKFNVLNNIIHSTLSNAINLELFPHTTISVTVHGIQDDGSMGAVAINGACFALLDNGMPFETVFCGVLIVRVKDELIIDPTAKQEAASTGRVLFSVCKGSDGHPEVCAMDAIGHWDFIQLEAAWSLAQPSASAIFDFYKTVMKRKLSVDEQLEHHHHHH | soluble
12 | MAVLAALLRSGARSRSPLLRRLVQEIRYVERSYVSKPTLKEVVIVSATRTPIGSFLGSLSLLPATKLGSIAIQGAIEKAGIPKEEVKEAYMGNVLQGGEGQAPTRQAVLGAGCDGGRWDGEHVHVPYVMNRGSTPYGGVKLEDLIVKDGLTDVYNKIHMGSCAENTAKKLNIARNEQDAYAINSYTRSKAAWEAGKFGNEVIPVTVTVKGQPDVVVKEDEEYKRVDFSKVPKLKTVFQKENGTVTAANASTLNDGAAALVLMTADAAKRLNVTPLARIVGKARRGGSHL | not soluble
13 | MGSDKIHHHHHHMSNRQEQPHFNDWFQARGITEVECLVTDLTGILKGKIMPAGKYLGGGRPRLPDSIFIQTVTGGYPDDDDIHFWNPAERDMELVPDPNAVFLVPWADDPTAQIIHDCHYLTGEPVELAPRHVLKRVLACYQARGWKPVVAPEVEFFLVKTNTDSDYPLEPPIGRNGRQESSRQSFSIDAVNEFDPLFEEMYDYCDAMSLDLDTLIHEEGAGQMEVNFQHGDPLHLADQVVMFKRALRETALRHGMYATFMAKPMANEPGSSMHLHQSLLDAQSGDNLFASDNGQSSRLFQHFIGGLQRYLPASMPLLAPNVNSYRRLMRTETSGSAPINVEWGTDNRTVGLRVPVSTPEATRVENRLAGADANPYLVMAASLACGYLGMLGQLEPRPPMVGSAWSGGHKLPDDIRPALDMLSECQPLAEILGERFTNSYLAVKRAEHREYFQVISSWEREHLLLRV | not soluble
14 | MTYGYPKKWKENMTSGQVIAAELRLGIVSGEIESHIQLSENQVAQQFNVSRSPVRDAFKLLQTDQLIQLERMGAQVLPFGDQEKKEMYDLRLMLESFAFSKLSGTDTQHIIKEMKKQLEMMKVAVQFEDAEAFTQHDFEFHEVMIQATNHQYLKVFWNHLKPVMESLILISMRQRMANDPKDFERIHKNHQVFIDAVENDDASILRKAFHLNFDDVGENIEAFWLR | not soluble
15 | MAHHHHHHMNIKRSIYHYLSYSSFLIKNHYHHNNTIYPCFHSLRNNNKMSYFRPNYFICIPIKNDNICNELINIQKHVLVKYDELKDCIIERNKFHISLLILHIKKNQIELSKEAFNEAMEKIKKNMHNEKICFEKLDTFRNDVLYLSLKEDSNKYIINIINHLIDSFSKRGIKIIFNNKKPAKEILSNNNKKELNKNSNDLQHITPHLTLMKNSYMKKMYMNKKPQILPFFYTDYDLTNLLKEQIDIQKIQFLEMDMDTSTSYYKIVSEFNL | not soluble
16 | MSLNIIERQKLTQSLKLSQMMKLSINILKMSVMDLNKFIEKEFSEDSGISVELNYSKKENFNGGKEAEMNYPTDEKNFFQILEEQLSYFKINKKIKEICIFIINNLDKKGYLELSKIEIKDILEVSNKELEEAFDIIHNLEPYGIGAYSLEECLKIQLKAKKIIEEKLSLFIDNYLYLLADKKYDLIKEKLNINDNILFSYIDIIKSLNPIPSRGYSVGKVRKIIPDVLVEIKKNEIFYEINRASIPQINVKDKIEDEGHHHHHH | not soluble
17 | MLIISNAVHLPDHEIELNAIRAQGAGGQNVNKVSSAVHLRFDIQASSLPPFYKERLLALNDQRISGDGVVVIKAQQYRTQEQNREDALERLAELIRSVAKVQKARRPTKPTRGSQKRRLDGKAKRGAVKAGRGKVDFLEHHHHHH | not soluble
18 | MLLFSRQGKLRLQKWYMAYPDKVKKKITRELVTTILARKPKMCSFLEWKDCKIVYKRYASLYFCCAIEQNDNELLTLEIIHRYVELLDKYFGSVCELDIIFNFEKAYFILDELLIGGEIQETSKKNVLKAIASQDLLQEDETPQSFFDDHGLG | soluble
19 | MATDRENLLSDDYEETAAFCGCGYFRSFSFTRWRRGDDESRSRGGWSGCLQEERRGNWGSEKLKGLKEISEKIAGPKWKNFIRSFSSGRKKMRRDVDFTYDLKNYSLNFDDGGDGKDSSPERFVAPVVIKV | not soluble
20 | MSHVDDGFRSLTLKRFPQTDDVNPLLAWEAADEYLLQQLDETEIRGPVLILNDTFGALSCALAEHSPYSIGDSYLSELGTRENLRHNGIAESSVTFLDSTADYPQAPGVVLIKVPKTLALLEQQLRALRKVVTAQTRIIAGAKARDIHTSTLELFEKVLGPTTTTLAWKKARLINCTFSHPQLADAPQTLSWKLEDTGWTIHNHANVFSRTGLDIGARFFMQHLPENLDGEIVDLGCGNGVIGLSLLAKNPQANVVFVDESPMAVDSSRLNVETNLPEAFERCEFMINNALSGVEPFRFNAVFCNPPFHQKHALTDNIAWEMFHHARRCLKINGELYIVANRHLDYFHKLKKIFGNCATIATNNKFVILKAVKQGRRR | not soluble
21 | MGSDKIHHHHHHMWTPDALSSEVRPYRQDVWRVVEAQSRASTMRLVDSLEEQRLLEDLIDEVKPPVPPSCRQFHYLLSTPFRYGPYPTGSRFRRAGQQDGVFYASESVETAIAELAFYRLLFFVESPGTDLPARPTDHMAFSVPCVADRLIDLTLPPLAQDEAKWVNRLDYTACQDLADIARSARIEAIRYRSVRDPDGGCNLGVLTPAALGATKPQRLETWRLFIRPTGIQVAREFPRAEREFTCADFGADPRLDPFWIRP | not soluble

Source: the DeepSol protein solubility set
